Assay [1] addresses T1, human TMEM106B (human, UniProt Q9NUM4 2-274).
T1 construct: full-length, transiently expressed on HEK293 cells, or natively expressed on HeLa, U251 and A549 cells (the cell is named under assay); also the source of the Pepscan peptides; also called huTMEM106B; huTMEM
Put plainly: FACS HEK+huTMEM 10 ug/ml.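 Also: flow cytometric binding of purified mouse IgG antibodies to HEK293 cells transiently expressing human TMEM106B, read as median fluorescence intensity on live cells with propidium iodide-positive cells excluded.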

The target of assay [2] is T2, mouse TMEM106B (mouse, UniProt Q80X71 2-275).
T2 construct: transiently expressed on HEK293 cells, or native on mouse Neuro2a cells; also called moTMEM106B; murine TMEM106B
Put plainly: FACS Neuro2a.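 Also: flow cytometry of antibody binding to cells: hybridoma supernatant or purified antibody at 10 µg/ml, 1 h on ice, secondary detection, propidium iodide–positive dead cells gated out.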
Procedure: (§1) All cells were cultured in either T75 or T150 flasks. […] The enzyme was quenched by addition of fresh media, and the cells were then distributed into 96-well plates for FACS analysis.
(§2) FACS analysis was performed as follows. Each cell type was aliquoted in 96-well round bottom plates (2×10^5 cells per well), washed once with FACS buffer (PBS+2% FBS+1 mM EDTA), and incubated with 50 μL of hybridoma supernatant or purified antibody (10 μg/ml in FACS buffer) on ice for 1 hour. […] Following this secondary incubation, the cells were again washed 2× with ice-cold FACS buffer and resuspended in a final volume of 50 μL of FACS buffer+0.25 μl/well propidium iodide (Fisher Scientific #4BDB556463). Analysis was performed on a FACSCanto system (BD Biosciences) or iQue (Intellicyt), with sort gates drawn to exclude dead (i.e., propidium iodide positive) cells.

Assay [3] deals with T1, human TMEM106B. In words: FACS A549 1 ug/ml.
Procedure: (§3) Purified anti-TMEM106B antibodies were evaluated for their binding affinity to various TMEM106B-expressing cell lines including HEK293 transiently transfected with human/cyno/mouse TMEM106B, as well as HeLa cells and A549 cells. Antibodies tested for this experiment were mouse IgGs purified from hybridoma supernatant. Affinity binding to cells was determined as follows. Briefly, 1×10\hat{ }5 cells were aliquoted per well in 96-well round bottom plates and incubated with 50 μL of purified anti-TMEM106B antibody at various concentrations (10× dilutions starting at 10 μg/ml) in FACS buffer (PBS+2% FBS+1 mM EDTA). […] Sorting was performed on a iQue (Intellicyt), with sort gates drawn to exclude dead (propidium iodide+) cells. Binding data was analyzed using median fluorescent intensity (MFI) and graphed in Prism. Values presented are MFI.
Assay [4] has as its target T1, human TMEM106B. In words: FACS HEK+huTMEM 0.1 ug/ml (2nd column so headed).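 Also: flow cytometry binding of purified anti-TMEM106B mouse IgG to HEK293 cells transiently transfected with TMEM106B, read as median fluorescence intensity on live (propidium iodide-negative) cells.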
Assay [5] addresses T1, human TMEM106B. In words: FACS HEK+huTMEM 1.0 ug/ml.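 Also: binding of purified mouse IgG antibodies to HEK293 cells transiently expressing human TMEM106B, read by flow cytometry as median fluorescence intensity of live, propidium iodide-negative cells.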
Assay [6] has as its target T1, human TMEM106B. In words: FACS A549 10 ug/ml.
Procedure: as §3
Assay [7] addresses T1, human TMEM106B. Put plainly: FACS HEK+huTMEM 0.1 ug/ml.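 Also: flow cytometry binding of purified mouse IgG antibodies to HEK293 cells transiently expressing TMEM106B, read as median fluorescence intensity on live cells (propidium iodide negative gating).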
Procedure: as §3
Assay [8] has as its target T1, human TMEM106B. Put plainly: FACS A549.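 Also: flow cytometry of cells incubated on ice for 1 h with hybridoma supernatant or purified antibody at 10 µg/mL, dead propidium iodide-positive cells gated out.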
Procedure: as §1, §2
The target of assay [9] is T1, human TMEM106B. Put plainly: FACS U251.
Assay [10] deals with T1, human TMEM106B. Put plainly: FACS HeLa.
Procedure: as §1, §2

B1: TM-14 (antibody, V domains shown)
VH: QVQLQQSGPELVRPGTSVKVSCKASGYAFTNYLIEWVKQRPGQGLEWIGVINPGGGNTDYSEKFKDKATLTADKSSNTAYIQLSSLTSEDSAVYFCARSPYSSYVGYAVDYWGQGTSVTVSS
VL: DIQMTQSPSSLSASLGERVSLTCRASQDIGSNLNWLQQEPDGTIKRLIYATSSLDSGVPKRFSGSRSGSDYSLTISSLESEDFVVYYCLQYASSPRTFGGGTRLEIK
notes: mouse IgG (hybridoma)
As to B1, the MFI stood at 1190 MFI in assay [1]; 300 MFI in assay [2]; 409 MFI in assay [3]; 314 MFI in assay [4]; 680 MFI in [5]; 438 MFI in assay [6]. The MFI is 364 MFI in [7], 896 MFI in [8], 270 MFI in [9] and 307 MFI in assay [10].

B2: TM-17 (antibody, V domains shown)
VH: QVQLQQSGAELIRPGTSVKVSCKASGYAFTDYLIEWVKQRPGQGLEWIGVINPGSGGTNYNEKFKGKAKLTADKSSSTAYMQLSSLTSEDSAVYFCVRSSYGVYVAYPMDYWGQGTSVTVSS
VL: DIQMTQSPSSLSASLGERVSLTCRASQDIGSNLNWLQQEPDGTIKRLIYATSSLDSGVPKRFSGSRSGSDYSLTISSLESEDFVDYYCLQYASSPRTFGGGTKLEIK
Take B2: the MFI in assay [1] turned out to be 3960 MFI; in assay [2] it was 385 MFI; in [3] it was 379 MFI; in assay [4] it was 1150 MFI; in assay [5], 2620 MFI; in assay [6], 425 MFI. Further, the MFI in assay [7] came out at 1910 MFI; in assay [8] it was 953 MFI; in [9], 305 MFI; in assay [10], 437 MFI.

B3: TM-23 (antibody, V domains shown)
VH: QVQLQQSGAELIRPGTSVKVSCKASGYAFTNYLIEWVKKRPGQGLEWIGVINPGSGITNYNEKFKGKATLTADKSSSTAYMQLSSLTSEDSAVYFCARSDFITTVVADYWGQGTTVTVSS
VL: DIVVTQTPLSLPVSFGDQVSISCRSSQSLTNYYGNTYLSWYLHKPGQSPQLLIYGISNRFSGVPDRFSGSGSGTDFTLKISTIKPEDLGMYYCLQGTHQPRTFGGGTKLEIK
As to B3, the MFI turned out to be 12400 MFI in assay [1]; 333 MFI in [2]; 398 MFI in [3]; 1100 MFI in [4]; 3900 MFI in assay [5]; 757 MFI in assay [6]. Further, the MFI in [7] came out at 2410 MFI; in assay [8], 1090 MFI; in assay [9] it was 278 MFI; in [10] it was 308 MFI.

B4: TM-26 (antibody, V domains shown)
VH: QVQLQQSGAELIRPGTSVKVSCKASGYAFTNYLIEWVKKRPGQGLEWIGVINPGSGITNYNEKFKGKATLTADKSSSTAYMQLSSLTSEDSAVYFCARSDFITTVVADYWGQGTTVTVSS
VL: DIVVTQTPLSLPVSFGDQVSISCRSSQSLTNYYGNTYLSWYLHKPGQSPQLLIYGISNRFSGVPDRFSGSGSGTDFTLKISTIKPEDLGMYYCLQGTHQPRTFGGGTKLEIK
Consider B4, for which the MFI in assay [1] was determined as 3850 MFI; in assay [2], 324 MFI; in assay [3], 380 MFI; in [4], 1000 MFI; in assay [5], 3340 MFI; in assay [6], 509 MFI. For the same molecule, the MFI turned out to be 1960 MFI in assay [7], 952 MFI in assay [8], 300 MFI in assay [9] and 384 MFI in [10].

B5: TM-19 (antibody, V domains shown)
VH: DVQLQQSGAELVRPGASVKLSCTASGFNIKDYYMYWVKQRPEQGLEWIGRIDPEDGDTENAPKFRGMATMTADTSSNTAYLQLNSLTSEDTAVYYCTTRIGNLYHVMDYWGHGTSVTVSS
VL: DVLMTQTPLSLPVSLGDQASISCRSSQSIVHSNGNTYLEWYLQKPGQAPKLLIDKVFNRFSGVPDRFSGSGSGTDFTLKISRVEAEDLGVYYCFQGSHVPFTFGSGTKLEIK
Consider B5, for which the MFI in [1] turned out to be 79000 MFI; in assay [2], 2140 MFI; in assay [3] it was 3640 MFI; in [4], 3340 MFI; in [5] it was 66800 MFI; in assay [6], 4960 MFI. The MFI in assay [7] was 29800 MFI; in [8], 1820 MFI; in assay [9], 878 MFI; in assay [10], 2430 MFI.

B6: TM-22 (antibody, V domains shown)
VH: QVQLQQSGPELVKPGASVKISCKASGYRFTSYYIHWVKQRPGQGLEWIGWIYPGNGITNYNEKFKGKATLTADTSSSTAYMQLSSLTSEDSAVYYCASPYYGIRNCYFDVWGTGTTVTVSS
VL: DVLMTQTPLSLPVSLGDHASISCRSGQSIVHSNGNTYLEWYLQKPGQSPKLLIYKVSNRFSGVPDRFSGSGSGTDFTLKISRVEAEDLGIYYCFQGSHVPWTFGGGTKLEIK
With B6, the MFI in [1] was found to be 3580 MFI; in assay [2] it was 400 MFI; in assay [3] it was 399 MFI; in [4], 500 MFI; in [5], 2100 MFI; in [6] it was 478 MFI. Further, the MFI in assay [7] amounted to 833 MFI; in assay [8], 1570 MFI; in [9] it was 313 MFI; in assay [10], 408 MFI.

B7: TM-21 (antibody, V domains shown)
VH: EVQLVESGGGLVKPGGSLKLSCAASGFTFSNYAMSWVRETPEKRLEWVAFISDGGGYIYYADNVKDRFTISRDNAKNNLYLQMRHLKSEDTAMYYCARDGGTGFTYWGQGTLVTVSV
VL: DIVMTQAAFSNPVTLGTSASISCRSSKSLLHSNGITYLFWYLQKPGQSPQLLIYQMSNLASGVPDRFSSSGSGTDFTLRISRVEAEDVGVYYCVQNLELPYTFGGGTKLEIK
Take B7: the MFI in [1] is 69400 MFI; in assay [2], 706 MFI; in assay [3] it was 2030 MFI; in assay [4], 2350 MFI; in [5], 69400 MFI; in assay [6] it was 4230 MFI. In addition, the MFI in assay [7] is 15600 MFI; in assay [8], 1030 MFI; in [9], 672 MFI; in [10], 1200 MFI.

B8: TM-18 (antibody, V domains shown)
VH: EVRLQQSGPELVKPGASVKISCKTSGYTFTDYYMNWVKQSHGKSLEWIVNINPNNGDAFYNQKFKGKATLTVDKSSNTAYLDLRSLTSEDSAVYYCAREGQLRLRRVYAMDYWGQGTSVTVSS
VL: DIVLAQSPASLAVSLGQRATISCRASKSVSISVYTYVHWYQQKPGQPPKLLIYLASNLESGVPARFSGSGSGTDFTLNIHPVEEEDAATYYCQHSRELPYTFGGGTKLEIK
B8: the MFI stood at 71700 MFI in assay [1]; 1930 MFI in assay [2]; 2620 MFI in [3]; 1740 MFI in assay [4]; 67300 MFI in assay [5]; 5190 MFI in assay [6]. The MFI amounted to 10600 MFI in assay [7], 1490 MFI in assay [8], 874 MFI in assay [9] and 1920 MFI in [10].

B9: TM-13 (antibody, V domains shown)
VH: QVQLQQSGAELVKPGASVKMSCKASGYTFTTFPIEWMKQSHGKGLEWIGNFHPYNDDTKYNEKFKGKATLTVDKSSSTVYLDLSRLTSDDSAVYYCARYFYGGMDYWGQGTSVTVSS
VL: DIQMTQSPASLSVSVGETVTITCRASENIYSSLGWYQQKQGESPQLLVFAATNLADGVPSRFSGSGSGTQYSLKINSLQSEDFGTYYCQHLWSIPWTFGGGTRLEIK
For B9, the MFI in [1] was found to be 67500 MFI; in assay [2] it was 927 MFI; in assay [3] it was 1950 MFI; in assay [4] it was 2900 MFI; in [5] it was 67100 MFI; in assay [6], 3890 MFI. The MFI in [7] was 19100 MFI; in assay [8], 1260 MFI; in assay [9] it was 787 MFI; in assay [10] it was 1380 MFI.

B10: TM-25 (antibody, V domains shown)
VH: EVQLVESGGDLVKPGGSLRLSCAASGFTFSGYGMSWIRQTPDKRLEWVATISSGGRYTVYPDSVKGRFTMSRDNVKNTLYLQMSSLKSEDTALYYCARDNFYSYAMDYWGLGTSVTVSA
VL: DIVMTQAAFSNPVTLGTSASISCRSSKSLLHSNGITYLFWYLQKPGQSPQLLIYQMSNLASGVPDRFSSSGSGTDFTLRISRVEAEDVGVYYCAQNLELWTFGGGTKLEIK
B10: the MFI in assay [1] stood at 60300 MFI; in assay [2], 354 MFI; in [3], 4530 MFI; in assay [4], 4310 MFI; in [5], 64700 MFI; in assay [6] it was 7000 MFI. In addition, the MFI in assay [7] is 32800 MFI; in assay [8] it was 1700 MFI; in assay [9] it was 1110 MFI; in assay [10], 2560 MFI.

B11: TM-15 (antibody, V domains shown)
VH: QVQLQQPGAEFVRPGASVKLSCKASGYTFTNYWITWVKQRPGHGLEWIGDIYPGSGNSNYNESFKRKATLTVDTSSSTAYMHLSSQTSEDSAVYFCARKAYGGFPYWGQGTLVTVSA
VL: DIQMTQSPASLSVSVGETVTITCRVSENIYNNLAWYQQKQEKSPQLLVFAATNLADGVPSRFSGSGSGTQFSLKINSLQSEDFGTYYCQHFWDTPFTFGSGTKLEIK
notes: mouse IgG (hybridoma)
With B11, the MFI was 63100 MFI in assay [1]; 470 MFI in assay [2]; 650 MFI in [3]; 584 MFI in assay [4]; 14300 MFI in assay [5]; 1980 MFI in assay [6]. In addition, the MFI in assay [7] was 2060 MFI; in assay [8], 938 MFI; in [9], 382 MFI; in assay [10] it was 660 MFI.

(Values after patent US20200339680A1 (Alector, published 2020).)
